{
  "source": "paper PMC10951451",
  "about": "(Current Therapeutic Research, Clinical and Experimental, 2024)",
  "format": "in vivo, Norwegian domestic pigs (Sus scrofa domesticus)",
  "details": "for AUC0–∞ with AUC of porcine insulin subtracted: mean (SD)",
  "note": "Like-named read-outs stand apart in the source and are kept apart here.",
  "data": [
    {"substance": "insulin aspart", "values": [
      {"measurement": "AUC0–∞ with AUC of porcine insulin subtracted", "setting": "glucagon group: 10 IU insulin aspart sc + 100 µg glucagon, n = 6", "value": "7908 (1159) mU/L/min"},
      {"measurement": "Median AUC0–∞ plasma insulin concentration", "setting": "glucagon group: 10 IU insulin aspart sc + 100 µg glucagon", "value": 8419, "unit": "mU/L/min"},
      {"measurement": "AUC0–∞ with AUC of porcine insulin subtracted", "setting": "placebo group: 10 IU insulin aspart sc + saline, 1 of 6 pigs excluded", "value": "5372 (994) mU/L/min"},
      {"measurement": "Median AUC0–∞ plasma insulin concentration", "setting": "placebo group: 10 IU insulin aspart sc + saline", "value": 6211, "unit": "mU/L/min"}
    ]}
  ]
}
